Results reported in patent publication US10745460B2, “Peptides and combination of peptides for use in immunotherapy against various tumors” (Immatics Biotechnologies GmbH, priority 2015, dated 2020).

These substances were tested against HLA-A*02:01 (Homo sapiens, UniProt P04439, D140Y/D185E/D98H/E176V/E277Q/G131W/G231S/I119V/I121R/I166T/I218V/L300P/L318F/N151K/N90K/P208A/P217A/Q86G/Q94H/R138H/R169H/T345S) (assay: MHC binding assay: UV-ligand exchange with β2m ELISA (peptide exchange yield)). Settings: binding to HLA-A*02:01 evaluated by peptide exchange yield (UV-ligand exchange, β2m ELISA).
Outline: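 Binding capacity is expressed as the yield of UV-mediated ligand exchange, reflecting how well each peptide stabilizes peptide-receptive MHC. Stabilized complexes are read out by anti-β2m HRP ELISA (450 nm) after streptavidin capture, with refolded MLA-001 monomer standards for quantitation.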

Substance | Peptide exchange
187 (SILKEDPFL; listed as Homo sapiens) [compound 187] | ++ (≥20% = ++)
188 (VLGEEQEGV; listed as Homo sapiens) [compound 188] | ++ (≥20% = ++)
193 (ALFHMNILL; listed as Homo sapiens) [compound 193] | +++ (≥50 = +++)
200 (IMPTFDLTKV; listed as Homo sapiens) [compound 200] | +++ (≥50 = +++)
206 (GLDAFRIFL; listed as Homo sapiens) [compound 206] | ++++ (≥75% = ++++)
207 (KLFETVEEL; listed as Homo sapiens) [compound 207] | +++ (≥50 = +++)
211 (LLTTVLINA; listed as Homo sapiens) [compound 211] | +++ (≥50 = +++)
214 (ALFETLIQL; listed as Homo sapiens) [compound 214] | +++ (≥50 = +++)
215 (QIADIVTSV; listed as Homo sapiens) [compound 215] | ++ (≥20% = ++)
216 (ALSTVTPRI; listed as Homo sapiens) [compound 216] | ++ (≥20% = ++)
219 (GVVPTIQKV; listed as Homo sapiens) [compound 219] | ++ (≥20% = ++)
226 (SLAGNLQEL; listed as Homo sapiens) [compound 226] | +++ (≥50 = +++)
227 (SEMEELPSV; listed as Homo sapiens) [compound 227] | + (≥10% = +)
230 (KLLNMIFSI; listed as Homo sapiens) [compound 230] | +++ (≥50 = +++)
233 (SLFESLEYL; listed as Homo sapiens) [compound 233] | +++ (≥50 = +++)
234 (VLLNEILEQV; listed as Homo sapiens) [compound 234] | ++++ (≥75% = ++++)
235 (SLLNQPKAV; listed as Homo sapiens) [compound 235] | ++ (≥20% = ++)

Substance | Peptide exchange
237 (ALLEQTGDMSL; listed as Homo sapiens) [compound 237] | +++ (≥50 = +++)
239 (VIIKGLEEITV; listed as Homo sapiens) [compound 239] | +++ (≥50 = +++)
242 (KLQEEIPVL; listed as Homo sapiens) [compound 242] | +++ (≥50 = +++)
243 (GLAEFQENV; listed as Homo sapiens) [compound 243] | ++ (≥20% = ++)
244 (NVAEIVIHI; listed as Homo sapiens) [compound 244] | +++ (≥50 = +++)
245 (ALLEEEEGV; listed as Homo sapiens) [compound 245] | ++ (≥20% = ++)
247 (NLLIDDKGTIKL; listed as Homo sapiens) [compound 247] | ++ (≥20% = ++)
249 (YLYQILQGI; listed as Homo sapiens) [compound 249] | +++ (≥50 = +++)
250 (LMQDSRLYL; listed as Homo sapiens) [compound 250] | +++ (≥50 = +++)
251 (LLWGNLPEI; listed as Homo sapiens) [compound 251] | +++ (≥50 = +++)
262 (LLLEAVWHL; listed as Homo sapiens) [compound 262] | +++ (≥50 = +++)
263 (SIIEYLPTL; listed as Homo sapiens) [compound 263] | +++ (≥50 = +++)
265 (FLLDKPQDLSI; listed as Homo sapiens) [compound 265] | +++ (≥50 = +++)
269 (GLLDCPIFL; listed as Homo sapiens) [compound 269] | ++++ (≥75% = ++++)
271 (VLIEYNFSI; listed as Homo sapiens) [compound 271] | +++ (≥50 = +++)
272 (FVMEGEPPKL; listed as Homo sapiens) [compound 272] | ++ (≥20% = ++)

More lines, now with the values ahead:

Peptide exchange | Substance
++ (≥20% = ++) | 185 (TLYQGLPAEV; listed as Homo sapiens) [compound 185]
+++ (≥50 = +++) | 190 (SLSTELFKV; listed as Homo sapiens) [compound 190]
+++ (≥50 = +++) | 191 (AAIEIFEKV; listed as Homo sapiens) [compound 191]
++ (≥20% = ++) | 192 (TLLPSSGLVTL; listed as Homo sapiens) [compound 192]
++ (≥20% = ++) | 194 (KLLEEVQLL; listed as Homo sapiens) [compound 194]
+++ (≥50 = +++) | 195 (VIIQNLPAL; listed as Homo sapiens) [compound 195]
++ (≥20% = ++) | 198 (ILTNKVVSV; listed as Homo sapiens) [compound 198]
++ (≥20% = ++) | 199 (SVADLAHVL; listed as Homo sapiens) [compound 199]
++ (≥20% = ++) | 203 (FLFVDPELV; listed as Homo sapiens) [compound 203]
+++ (≥50 = +++) | 204 (SEWGSPHAAVP; listed as Homo sapiens) [compound 204]
++ (≥20% = ++) | 208 (HLNNDRNPL; listed as Homo sapiens) [compound 208]
+++ (≥50 = +++) | 210 (GLAGDNIYL; listed as Homo sapiens) [compound 210]
++ (≥20% = ++) | 212 (MTLSEIHAV; listed as Homo sapiens) [compound 212]
+++ (≥50 = +++) | 213 (ILAVDGVLSV; listed as Homo sapiens) [compound 213]
+++ (≥50 = +++) | 217 (LLWPSSVPA; listed as Homo sapiens) [compound 217]
+++ (≥50 = +++) | 218 (SLTGANITV; listed as Homo sapiens) [compound 218]
+++ (≥50 = +++) | 220 (ALSELERVL; listed as Homo sapiens) [compound 220]
++ (≥20% = ++) | 221 (IMLNSVEEI; listed as Homo sapiens) [compound 221]
++ (≥20% = ++) | 222 (LLTGVFAQL; listed as Homo sapiens) [compound 222]
+++ (≥50 = +++) | 223 (ALHPVQFYL; listed as Homo sapiens) [compound 223]
+++ (≥50 = +++) | 224 (LLFDWSGTGRADA; listed as Homo sapiens) [compound 224]
+++ (≥50 = +++) | 225 (FLPQPVPLSV; listed as Homo sapiens) [compound 225]
+++ (≥50 = +++) | 228 (SLLELDGINLRL; listed as Homo sapiens) [compound 228]

Peptide exchange | Substance
++ (≥20% = ++) | 229 (YLYELEHAL; listed as Homo sapiens) [compound 229]
+++ (≥50 = +++) | 231 (LLDDIFIRL; listed as Homo sapiens) [compound 231]
+++ (≥50 = +++) | 236 (KMSELQTYV; listed as Homo sapiens) [compound 236]
++ (≥20% = ++) | 238 (HLQEKLQSL; listed as Homo sapiens) [compound 238]
+++ (≥50 = +++) | 241 (KQFEGTVEI; listed as Homo sapiens) [compound 241]
+++ (≥50 = +++) | 246 (ALAGIVTNV; listed as Homo sapiens) [compound 246]
+++ (≥50 = +++) | 248 (VLMQDSRLYL; listed as Homo sapiens) [compound 248]
++ (≥20% = ++) | 252 (SLMEKNQSL; listed as Homo sapiens) [compound 252]
+++ (≥50 = +++) | 253 (KLLAVIHEL; listed as Homo sapiens) [compound 253]
++ (≥20% = ++) | 254 (ALGDKFLLRV; listed as Homo sapiens) [compound 254]
+++ (≥50 = +++) | 255 (FLMKNSDLYGA; listed as Homo sapiens) [compound 255]
+++ (≥50 = +++) | 256 (FLNDIFERI; listed as Homo sapiens) [compound 256]
+++ (≥50 = +++) | 257 (KLIDHQGLYL; listed as Homo sapiens) [compound 257]
++ (≥20% = ++) | 258 (QLVQRVASV; listed as Homo sapiens) [compound 258]
+ (≥10% = +) | 259 (GPGIFPPPPPQP; listed as Homo sapiens) [compound 259]
+++ (≥50 = +++) | 260 (ALNESLVEC; listed as Homo sapiens) [compound 260]
+++ (≥50 = +++) | 261 (GLAALAVHL; listed as Homo sapiens) [compound 261]
++ (≥20% = ++) | 264 (TLHDQVHLL; listed as Homo sapiens) [compound 264]
++ (≥20% = ++) | 266 (FLLDKPQDL; listed as Homo sapiens) [compound 266]
+++ (≥50 = +++) | 267 (YLLDMPLWYL; listed as Homo sapiens) [compound 267]
++ (≥20% = ++) | 268 (SLDKDIVAL; listed as Homo sapiens) [compound 268]
+++ (≥50 = +++) | 270 (TLLTFFHEL; listed as Homo sapiens) [compound 270]
++ (≥20% = ++) | 273 (SLNKQIETV; listed as Homo sapiens) [compound 273]
